Experimental data from patent publication US20260158160A1 (MACFARLANE BURNET INSTITUTE FOR MEDICAL RESEARCH AND PUBLIC …, published 2026).

Molecular target: T1, SARS-CoV-2 spike protein expressed on Ramos-S cells (SARS-CoV-2, UniProt P0DTC2 14-1273)
T1 construct: whole, on cells; also called S protein; Ramos cells expressing transfected spike protein
Experiment: flow cytometry on Ramos-S cells

B1: CC40.8-H429F (antibody)
heavy: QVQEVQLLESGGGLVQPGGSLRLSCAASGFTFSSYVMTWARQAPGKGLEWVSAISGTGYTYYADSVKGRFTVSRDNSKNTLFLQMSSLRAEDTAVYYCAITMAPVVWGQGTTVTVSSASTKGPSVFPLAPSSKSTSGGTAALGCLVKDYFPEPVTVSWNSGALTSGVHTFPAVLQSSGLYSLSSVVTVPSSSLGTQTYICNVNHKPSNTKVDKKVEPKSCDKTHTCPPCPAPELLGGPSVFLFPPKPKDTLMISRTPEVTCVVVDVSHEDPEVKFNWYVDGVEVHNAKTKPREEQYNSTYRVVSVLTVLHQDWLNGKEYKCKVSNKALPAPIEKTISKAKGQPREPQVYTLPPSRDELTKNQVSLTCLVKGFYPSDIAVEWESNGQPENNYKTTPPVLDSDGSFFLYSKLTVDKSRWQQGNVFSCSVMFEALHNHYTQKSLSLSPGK
light: SYELTQPPSVSVSPGQTARITCSGDALPKRYAYWYQQKSGQAPILVIYEDKKRPSGIPERLSGSKSGTVATLTISGAQVEDEADYYCYSTDSSGNHAVFGGGTQLTVLGQPKAAPSVFIFPPSDEQLKSGTASVVCLLNNFYPREAKVQWKVDNALQSGNSQESVTEQDSKDSTYSLSSTLTLSKADYEKHKVYACEVTHQGLSSPVTKSFNRGEC
notes: also called CC40.8-HF
Does B1 bind?
Result: binds
